Source: US20230002460A1 (YUHAN, published 2023)

Biological target: GDF15 receptors GFRAL and RET, overexpressed together on HEK293 cells (UniProt Q6UXV0 19-394; P07949 29-1114, limits assumed)
Test: cell-based or functional assay

Sequence of GDF15 receptors GFRAL and RET, overexpressed together on HEK293 cells (Q6UXV0 19-394 limits assumed, chain 1 of 2): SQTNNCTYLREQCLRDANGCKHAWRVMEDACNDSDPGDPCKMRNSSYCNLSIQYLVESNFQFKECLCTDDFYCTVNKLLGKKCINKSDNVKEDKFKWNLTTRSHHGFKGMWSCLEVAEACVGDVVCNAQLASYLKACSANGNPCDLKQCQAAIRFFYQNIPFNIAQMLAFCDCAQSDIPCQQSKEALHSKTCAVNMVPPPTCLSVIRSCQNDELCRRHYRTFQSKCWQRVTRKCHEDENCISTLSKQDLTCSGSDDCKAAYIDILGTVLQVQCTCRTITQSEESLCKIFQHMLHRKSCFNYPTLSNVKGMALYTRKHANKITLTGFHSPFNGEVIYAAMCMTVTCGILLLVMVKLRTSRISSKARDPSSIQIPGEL
Sequence of GDF15 receptors GFRAL and RET, overexpressed together on HEK293 cells (P07949 29-1114 limits assumed, chain 2 of 2): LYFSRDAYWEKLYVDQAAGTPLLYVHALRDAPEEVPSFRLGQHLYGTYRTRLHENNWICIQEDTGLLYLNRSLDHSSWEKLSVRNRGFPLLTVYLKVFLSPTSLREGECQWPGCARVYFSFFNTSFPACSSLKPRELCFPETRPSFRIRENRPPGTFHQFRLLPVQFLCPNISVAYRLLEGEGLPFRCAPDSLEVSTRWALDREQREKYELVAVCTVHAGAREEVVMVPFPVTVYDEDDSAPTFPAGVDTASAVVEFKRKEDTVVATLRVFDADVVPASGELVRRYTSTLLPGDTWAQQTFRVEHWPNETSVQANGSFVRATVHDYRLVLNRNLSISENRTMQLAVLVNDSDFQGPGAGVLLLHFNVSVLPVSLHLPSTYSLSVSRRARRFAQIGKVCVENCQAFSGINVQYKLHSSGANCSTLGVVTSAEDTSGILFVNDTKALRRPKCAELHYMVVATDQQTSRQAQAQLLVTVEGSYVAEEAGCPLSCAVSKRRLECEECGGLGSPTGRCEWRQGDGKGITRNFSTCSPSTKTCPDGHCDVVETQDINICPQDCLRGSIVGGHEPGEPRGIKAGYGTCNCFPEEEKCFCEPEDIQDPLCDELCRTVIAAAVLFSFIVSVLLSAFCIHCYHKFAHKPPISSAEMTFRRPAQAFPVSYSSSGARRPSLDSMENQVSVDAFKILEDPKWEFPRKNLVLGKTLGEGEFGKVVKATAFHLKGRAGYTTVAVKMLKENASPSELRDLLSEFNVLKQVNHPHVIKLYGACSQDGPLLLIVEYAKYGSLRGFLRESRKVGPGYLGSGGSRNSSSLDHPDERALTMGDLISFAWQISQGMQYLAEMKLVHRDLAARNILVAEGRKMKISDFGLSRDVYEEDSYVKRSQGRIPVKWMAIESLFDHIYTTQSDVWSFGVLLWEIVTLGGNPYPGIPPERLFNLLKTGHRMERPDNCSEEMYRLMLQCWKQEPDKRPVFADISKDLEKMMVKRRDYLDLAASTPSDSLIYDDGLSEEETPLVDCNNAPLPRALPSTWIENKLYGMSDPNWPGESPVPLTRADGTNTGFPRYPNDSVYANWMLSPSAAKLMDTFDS

B1: long-acting GDF15 fusion protein ΔN2, S97N (Fc fusion)
chain 1: APALAGGPSVFLFPPKPKDTLMISRTPEVTCVVVDVSHEDPEVKFNWYVDGVEVHNAKTKPREEQYNSTYRVVSVLTVLHQDWLNGKEYKCKVSNKALPAPIEKTISKAKGQPREPQVYTLPPSREEMTKNQVSLWCLVKGFYPSDIAVEWESNGQPENNYKTTPPVLDSDGSFFLYSKLTVDKSRWQQGNVFSCSVMHEALHNHYTQKSLSLSPGKGGGGSGGGGSGGGGSGGGGSGGGGSNGDHCPLGPGRCCRLHTVRASLEDLGWADWVLSPREVQVTMCIGACPSQFRAANMHAQIKTSLHRLKPDTVPAPCCVPASYNPMVLIQKTDTGVNLQTYDDLLAKDCHCI
chain 2: not shown
For B1, the “EC50” value was 5.6 nM and the “Emax (%) [relative to FWT 100%]” value was 100%.

B2: long-acting GDF15 fusion protein ΔN2, W32F (Fc fusion)
chain 1: APALAGGPSVFLFPPKPKDTLMISRTPEVTCVVVDVSHEDPEVKFNWYVDGVEVHNAKTKPREEQYNSTYRVVSVLTVLHQDWLNGKEYKCKVSNKALPAPIEKTISKAKGQPREPQVYTLPPSREEMTKNQVSLWCLVKGFYPSDIAVEWESNGQPENNYKTTPPVLDSDGSFFLYSKLTVDKSRWQQGNVFSCSVMHEALHNHYTQKSLSLSPGKGGGGSGGGGSGGGGSGGGGSGGGGSNGDHCPLGPGRCCRLHTVRASLEDLGWADFVLSPREVQVTMCIGACPSQFRAANMHAQIKTSLHRLKPDTVPAPCCVPASYNPMVLIQKTDTGVSLQTYDDLLAKDCHCI
chain 2: not shown
For B2, the “EC50” value was 19.4 nM and the “Emax (%) [relative to FWT 100%]” value was 51.3%.

B3: long-acting GDF15 fusion protein ΔN2, Y101Q (Fc fusion)
chain 1: APALAGGPSVFLFPPKPKDTLMISRTPEVTCVVVDVSHEDPEVKFNWYVDGVEVHNAKTKPREEQYNSTYRVVSVLTVLHQDWLNGKEYKCKVSNKALPAPIEKTISKAKGQPREPQVYTLPPSREEMTKNQVSLWCLVKGFYPSDIAVEWESNGQPENNYKTTPPVLDSDGSFFLYSKLTVDKSRWQQGNVFSCSVMHEALHNHYTQKSLSLSPGKGGGGSGGGGSGGGGSGGGGSGGGGSNGDHCPLGPGRCCRLHTVRASLEDLGWADWVLSPREVQVTMCIGACPSQFRAANMHAQIKTSLHRLKPDTVPAPCCVPASYNPMVLIQKTDTGVSLQTQDDLLAKDCHCI
chain 2: not shown
For B3, the “EC50” value was 12.9 nM and the “Emax (%) [relative to FWT 100%]” value was 16.3%.

B4: long-acting GDF15 fusion protein ΔN2, Y101F (Fc fusion)
chain 1: APALAGGPSVFLFPPKPKDTLMISRTPEVTCVVVDVSHEDPEVKFNWYVDGVEVHNAKTKPREEQYNSTYRVVSVLTVLHQDWLNGKEYKCKVSNKALPAPIEKTISKAKGQPREPQVYTLPPSREEMTKNQVSLWCLVKGFYPSDIAVEWESNGQPENNYKTTPPVLDSDGSFFLYSKLTVDKSRWQQGNVFSCSVMHEALHNHYTQKSLSLSPGKGGGGSGGGGSGGGGSGGGGSGGGGSNGDHCPLGPGRCCRLHTVRASLEDLGWADWVLSPREVQVTMCIGACPSQFRAANMHAQIKTSLHRLKPDTVPAPCCVPASYNPMVLIQKTDTGVSLQTFDDLLAKDCHCI
chain 2: not shown
For B4, the “EC50” value was 31.8 nM and the “Emax (%) [relative to FWT 100%]” value was 37.5%.

B5: long-acting GDF15 fusion protein ΔN2, S97Q (Fc fusion)
chain 1: APALAGGPSVFLFPPKPKDTLMISRTPEVTCVVVDVSHEDPEVKFNWYVDGVEVHNAKTKPREEQYNSTYRVVSVLTVLHQDWLNGKEYKCKVSNKALPAPIEKTISKAKGQPREPQVYTLPPSREEMTKNQVSLWCLVKGFYPSDIAVEWESNGQPENNYKTTPPVLDSDGSFFLYSKLTVDKSRWQQGNVFSCSVMHEALHNHYTQKSLSLSPGKGGGGSGGGGSGGGGSGGGGSGGGGSNGDHCPLGPGRCCRLHTVRASLEDLGWADWVLSPREVQVTMCIGACPSQFRAANMHAQIKTSLHRLKPDTVPAPCCVPASYNPMVLIQKTDTGVQLQTYDDLLAKDCHCI
chain 2: not shown
B5 was tested, and the “EC50” value was 9.2 nM and the “Emax (%) [relative to FWT 100%]” value was 118%.
